Here are results for 7 molecules from patent US20230295335A1 (published 2023).

Residue numbers refer to the chain shown, from its start.

Assay [1] concerns the target T1, recombinant human EpCAM (R&D systems, cat no 9277-EP) (human, UniProt P16422 24-265).
T1 construct: also called human EpCAM extracellular domain
T1 sequence: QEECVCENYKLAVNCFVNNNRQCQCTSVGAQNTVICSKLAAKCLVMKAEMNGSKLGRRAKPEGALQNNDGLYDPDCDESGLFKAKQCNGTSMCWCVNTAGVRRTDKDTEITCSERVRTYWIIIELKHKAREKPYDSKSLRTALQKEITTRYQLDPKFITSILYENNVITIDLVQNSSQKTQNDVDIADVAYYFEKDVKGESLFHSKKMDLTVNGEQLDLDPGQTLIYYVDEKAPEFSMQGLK
Kind of assay: BLI classical sandwich cross-block; human EpCAM held by immobilized first antibody IgG1-EpCAM-A37-FEAR (competitor); second antibody 10 µg/mL in solution.

In assay [2] the target is T1, recombinant human EpCAM (R&D systems, …). Kind of assay: BLI classical sandwich cross-block; human EpCAM held by immobilized first antibody IgG1-EpCAM-C52-FEAR (competitor); second antibody 10 µg/mL in solution.
Assay [3] shares this target. Kind of assay: BLI classical sandwich cross-block; human EpCAM held by immobilized first antibody IgG1-EpCAM-323-A3-FEAR (competitor); second antibody 10 µg/mL in solution.
For assay [4] the target is unchanged. Kind of assay: BLI classical sandwich cross-block; human EpCAM held by immobilized first antibody IgG1-EpCAM-UBS-54-FEAR (competitor); second antibody 10 µg/mL in solution.
Assay [5] concerns the target T2, full length mouse EpCAM on CHO-S cells (mouse, UniProt Q99JW5 24-315).
T2 sequence: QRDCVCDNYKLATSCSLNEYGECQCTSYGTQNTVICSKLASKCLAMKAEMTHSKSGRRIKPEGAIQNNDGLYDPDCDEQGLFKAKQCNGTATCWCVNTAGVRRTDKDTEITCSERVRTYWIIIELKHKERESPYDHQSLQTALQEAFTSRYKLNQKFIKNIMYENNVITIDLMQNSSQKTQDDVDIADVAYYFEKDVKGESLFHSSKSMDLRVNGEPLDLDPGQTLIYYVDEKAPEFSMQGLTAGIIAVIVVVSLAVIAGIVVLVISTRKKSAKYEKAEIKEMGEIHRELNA
Kind of assay: flow cytometry on CHO-S cells transfected with mouse EpCAM.

Assay [6] deals with T3, full length cynomolgus monkey EpCAM on CHO-S cells (cynomolgus monkey, UniProt Q1WER1 24-314 (rhesus entry)).
T3 sequence: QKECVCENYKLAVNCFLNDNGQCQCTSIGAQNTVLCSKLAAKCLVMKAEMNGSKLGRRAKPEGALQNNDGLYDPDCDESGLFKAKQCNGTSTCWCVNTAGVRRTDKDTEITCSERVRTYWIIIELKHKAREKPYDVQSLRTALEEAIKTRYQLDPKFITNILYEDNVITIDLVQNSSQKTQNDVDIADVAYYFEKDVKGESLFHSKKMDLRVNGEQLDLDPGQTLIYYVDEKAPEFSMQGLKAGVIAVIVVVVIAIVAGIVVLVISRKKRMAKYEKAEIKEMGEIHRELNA
Kind of assay: flow cytometry on CHO-S cells transfected with cynomolgus monkey EpCAM.

For assay [7], the target named is human 4-1BB (CD137) on cells (human, UniProt Q07011 24-255). Kind of assay: cell-based or functional assay.
human 4-1BB (CD137) on cells, sequence (Q07011 24-255): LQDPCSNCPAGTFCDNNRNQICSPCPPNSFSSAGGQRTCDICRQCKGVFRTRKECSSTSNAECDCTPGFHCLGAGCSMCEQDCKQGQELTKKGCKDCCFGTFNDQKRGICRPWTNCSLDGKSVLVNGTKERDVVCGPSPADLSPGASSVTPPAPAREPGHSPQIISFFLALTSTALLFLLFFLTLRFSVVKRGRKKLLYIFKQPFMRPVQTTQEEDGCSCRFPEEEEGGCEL
For assay [8], the target named is T4, FcγRIa (human, UniProt P12314 16-288, limits assumed, biotinylated).
T4 construct: Bought His-tagged protein captured on anti-His chip; also called CD64 Protein, Human, Recombinant (His Tag), Biotinylated
T4 sequence (P12314 16-288 limits assumed): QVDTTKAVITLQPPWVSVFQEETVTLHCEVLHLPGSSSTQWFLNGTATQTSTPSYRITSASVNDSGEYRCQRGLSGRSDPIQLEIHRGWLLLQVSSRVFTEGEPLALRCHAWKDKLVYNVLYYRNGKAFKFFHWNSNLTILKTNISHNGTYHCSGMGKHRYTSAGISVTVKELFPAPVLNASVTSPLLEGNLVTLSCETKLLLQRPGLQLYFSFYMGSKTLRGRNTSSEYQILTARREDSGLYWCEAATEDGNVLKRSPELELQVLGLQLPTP
Kind of assay: SPR (Biacore 8K); His-tagged FcγR captured on anti-His chip.

The target in assay [9] is T5, FcγRIIIa-F158 (human, UniProt P08637 17-208).
T5 construct: extracellular domain; Bought His-tagged protein
T5 sequence (P08637 17-208): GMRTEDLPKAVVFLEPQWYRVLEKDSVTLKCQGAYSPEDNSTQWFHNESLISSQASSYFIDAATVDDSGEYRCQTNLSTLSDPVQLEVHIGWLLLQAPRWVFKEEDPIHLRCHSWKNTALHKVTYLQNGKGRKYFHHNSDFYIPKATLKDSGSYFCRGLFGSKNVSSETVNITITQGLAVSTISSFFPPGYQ
Described as above.

The target of assay [10] is T6, FcγRIIIa-V158 (human, UniProt P08637 17-208).
T6 construct: Bought His-tagged protein
T6 sequence (P08637 17-208 F176V limits assumed): as the sequence (P08637 17-208) above, with F160V counted along it
The description is as above.

B1: IgG1-EpCAM-323-A3-FEAR (antibody)
heavy: QIQLVQSGPELKKPGETVKISCKASGYTFTNYGMNWVRQASGEGLKWMGWINTYTGEPTYGEDFKGRFAFSLETSASTAYLQINNLKNEDTATYFCARFGNYVDYWGQGTTLTVSSASTKGPSVFPLAPSSKSTSGGTAALGCLVKDYFPEPVTVSWNSGALTSGVHTFPAVLQSSGLYSLSSVVTVPSSSLGTQTYICNVNHKPSNTKVDKRVEPKSCDKTHTCPPCPAPEFEGGPSVFLFPPKPKDTLMISRTPEVTCVVVAVSHEDPEVKFNWYVDGVEVHNAKTKPREEQYNSTYRVVSVLTVLHQDWLNGKEYKCKVSNKALPAPIEKTISKAKGQPREPQVYTLPPSREEMTKNQVSLTCLVKGFYPSDIAVEWESNGQPENNYKTTPPVLDSDGSFFLYSRLTVDKSRWQQGNVFSCSVMHEALHNHYTQKSLSLSPG
light: DIVMTQAAFSNPVTLGTSASISCRSSKNLLHSNGITYLYWYLQKPGQSPHLLIYQMSNLASGVPDRFSSSGSGTDFTLRISRVEAEDVGVYYCAQNLEIPRTFGGGTKLEIKRTVAAPSVFIFPPSDEQLKSGTASVVCLLNNFYPREAKVQWKVDNALQSGNSQESVTEQDSKDSTYSLSSTLTLSKADYEKHKVYACEVTHQGLSSPVTKSFNRGEC
notes: also called IgG1-323-A3-FEAR
As to B1, the “corrected association response of the antibody in solution” value (“corrected association response” for short) in [1] was -0.02 nm; in assay [2], -0.02 nm; in [3], 0 nm; in [4] it was -0.01 nm.

B2: IgG1-EpCAM-323-A3 (antibody)
heavy: not shown
light: B1 light
notes: Unmodified IgG1 constant region
As to B2, the binding result in assay [5] and in [6] was “binds” each time.

B3: IgG1-EpCAM-UBS-54-FEAR (antibody, V domains shown)
VH: QVQLVQSGAEVKKPGSSVRVSCKASGGTFSSYAISWVRQAPGQGLEWMGGIIPIFGTANYAQKFQGRVTITADESTSTAYMELSSLRSEDTAVYYCARDPFLHYWGQGTLVTVSS
VL: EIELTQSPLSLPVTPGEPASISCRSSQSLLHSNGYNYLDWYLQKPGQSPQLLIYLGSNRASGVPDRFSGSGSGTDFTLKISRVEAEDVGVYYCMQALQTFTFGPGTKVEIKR
Consider B3, for which the binding result in assay [5] and in [6] was “binds” each time. Further, the “corrected association response” value is -0.03 nm in assay [1], -0.01 nm in assay [2], 0 nm in assay [3] and -0.02 nm in [4].

B4: bsIgG1-EpCAM-A37-FERL/CD137-009-HC7LC2-FEAR (bispecific antibody)
heavy 1: not shown
light 1: EIELTQSPGTLSLSPGERATLSCRASQTISNNYLAWYQQKRGQAPRLLIYAASSRATGIPDRFSGTGSGTDFTLTISRLEPEDFAVYYCAQGELYPRQFGGGTKLEIKRTVAAPSVFIFPPSDEQLKSGTASVVCLLNNFYPREAKVQWKVDNALQSGNSQESVTEQDSKDSTYSLSSTLTLSKADYEKHKVYACEVTHQGLSSPVTKSFNRGEC
heavy 2: EVQLVESGGGLVQPGRSLRLSCTASGFSLNDYWMSWVRQAPGKGLEWVGYIDVGGSLYYAASVKGRFTISRDDSKSIAYLQMNSLKTEDTAVYYCARGGLTYGFDLWGQGTLVTVSSASTKGPSVFPLAPSSKSTSGGTAALGCLVKDYFPEPVTVSWNSGALTSGVHTFPAVLQSSGLYSLSSVVTVPSSSLGTQTYICNVNHKPSNTKVDKRVEPKSCDKTHTCPPCPAPEFEGGPSVFLFPPKPKDTLMISRTPEVTCVVVAVSHEDPEVKFNWYVDGVEVHNAKTKPREEQYNSTYRVVSVLTVLHQDWLNGKEYKCKVSNKALPAPIEKTISKAKGQPREPQVYTLPPSREEMTKNQVSLTCLVKGFYPSDIAVEWESNGQPENNYKTTPPVLDSDGSFFLYSRLTVDKSRWQQGNVFSCSVMHEALHNHYTQKSLSLSPG
light 2: DIVMTQSPSSLSASVGDRVTITCQASEDISSYLAWYQQKPGKAPKRLIYGASDLASGVPSRFSASGSGTDYTFTISSLQPEDIATYYCHYYATISGLGVAFGGGTKVEIKRTVAAPSVFIFPPSDEQLKSGTASVVCLLNNFYPREAKVQWKVDNALQSGNSQESVTEQDSKDSTYSLSSTLTLSKADYEKHKVYACEVTHQGLSSPVTKSFNRGEC
Turning to B4, in assay [7], the “EC50 CD107a GMFI (donor 1)” value worked out at 0.0503 mg/L, the “EC50 CD107a GMFI (donor 2)” value came to 0.03 mg/L, the “EC50 CD107a GMFI (donor 3)” value was found to be 0.0217 mg/L and the “EC50 CD107a GMFI (donor 4)” value turned out to be 0.012 mg/L. In [7], the “EC50 CD107a GMFI (donor 6)” value worked out at 0.021 mg/L, the “EC50 GzmB GMFI (donor 1)” value came to 0.0179 mg/L, the “EC50 GzmB GMFI (donor 2)” value turned out to be 0.0176 mg/L and the “EC50 GzmB GMFI (donor 3)” value turned out to be 0.0204 mg/L. Further, in assay [7], the “EC50 GzmB GMFI (donor 4)” value was 0.0121 mg/L, the “EC50 GzmB GMFI (donor 5)” value is 0.0201 mg/L and the “EC50 GzmB GMFI (donor 6)” value was 0.0224 mg/L. Besides, in assay [8], the binding result is reported as “no binding (tested: 3,000 nM (highest concentration tested))”. In assay [9], the binding result is listed as “no binding (tested: 10,000 nM (highest concentration tested))”. Further, the binding result in [10] was “no binding (tested: 10,000 nM (highest concentration tested))”.

B5: bsIgG1-CD137-009-HC7LC2-FEAL/EpCAM-A37-FEAR (bispecific antibody)
heavy 1: B4 heavy 2 with F405L, R409K
light 1: B4 light 2
heavy 2: not shown
light 2: B4 light 1
Turning to B5, the binding result in [8] is “no binding (tested: 3,000 nM (highest concentration tested))”; in [9], “no binding (tested: 10,000 nM (highest concentration tested))”; in [10], “no binding (tested: 10,000 nM (highest concentration tested))”.

B6: IgG1-EpCAM-A37-FEAR (antibody)
heavy: not shown
light: B4 light 1
Turning to B6, the binding result in [5] and in assay [6] was “binds” in each case. Besides, the “corrected association response” value is -0.04 nm in assay [1], 0 nm in [2], -0.01 nm in assay [3] and 0 nm in assay [4].

B7: IgG1-EpCAM-C52-FEAR (antibody, V domains shown)
VH: B3 VH with S16A, R19K, I52V
VL: EIELTQSPGTLSLSPGERATLSCRASQSVSSSYLAWYQQKPGQAPRLLIYGASSRATGIPDRFSGSGSGTDFTLTISRLEPEDFAVYYCAQGELYPRQFGGGTKLDIKR
notes: The running text prints C52 as 052; also called IgG1-EpCAM-052-FEAR
For the molecule B7, the binding result in assay [5] and in [6] was “binds” each time. The “corrected association response” value is -0.03 nm in [1], -0.02 nm in assay [2], -0.01 nm in assay [3] and 0 nm in assay [4].
